Measurements: patent publication US20220017630A1 (JIANGSU SIMCERE PHARMACEUTICAL, published 2022)

T1: Human TNFR2 recombinant protein (Sino 10417-H08H) (human, UniProt P20333 23-257)
T1 construct: also called hTNFR2 (His tag)
T1 sequence (looked up): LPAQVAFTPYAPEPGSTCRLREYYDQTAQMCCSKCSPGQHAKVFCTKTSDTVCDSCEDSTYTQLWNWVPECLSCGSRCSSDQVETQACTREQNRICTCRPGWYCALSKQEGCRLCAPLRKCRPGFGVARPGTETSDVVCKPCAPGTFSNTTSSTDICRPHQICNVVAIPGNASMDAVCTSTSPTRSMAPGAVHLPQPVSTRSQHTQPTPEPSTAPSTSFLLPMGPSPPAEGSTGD

T2: cynomolgus TNFR2 (Sino 90102-C08H) (cynomolgus, UniProt A0A2K5VET2 132-366)
T2 construct: also called CynoTNFR2 (His tag)
T2 sequence: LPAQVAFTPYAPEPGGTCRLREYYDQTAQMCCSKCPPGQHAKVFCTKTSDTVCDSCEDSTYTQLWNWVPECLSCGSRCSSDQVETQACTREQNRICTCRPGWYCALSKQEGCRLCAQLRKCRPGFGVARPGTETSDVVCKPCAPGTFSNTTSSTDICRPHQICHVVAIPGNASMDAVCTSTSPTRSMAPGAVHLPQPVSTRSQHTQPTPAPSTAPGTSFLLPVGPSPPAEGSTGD

T3: human TNFR2 on the cell surface (CHO-TNFR2 cells; human Treg cells) (human, UniProt P20333 23-461)
T3 construct: whole, on cells; The assay field of each row says which cells; also called TNFR2-CHO cell; TNFR2 on Treg cells
T3 sequence (looked up): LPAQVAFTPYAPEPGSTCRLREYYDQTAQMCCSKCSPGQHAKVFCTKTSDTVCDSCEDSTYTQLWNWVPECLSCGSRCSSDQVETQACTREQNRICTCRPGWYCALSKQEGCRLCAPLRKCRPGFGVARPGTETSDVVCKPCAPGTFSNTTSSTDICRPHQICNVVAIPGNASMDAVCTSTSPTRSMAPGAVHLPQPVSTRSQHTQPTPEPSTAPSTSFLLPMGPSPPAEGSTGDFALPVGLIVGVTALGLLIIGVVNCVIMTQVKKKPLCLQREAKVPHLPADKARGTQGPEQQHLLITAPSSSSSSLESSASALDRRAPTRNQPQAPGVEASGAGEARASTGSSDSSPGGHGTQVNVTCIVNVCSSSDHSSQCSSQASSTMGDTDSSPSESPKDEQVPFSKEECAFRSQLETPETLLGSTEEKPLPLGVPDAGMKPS

T4: human TNFR2 (Novoprotein, Catalog No. C830) (human, UniProt P20333 23-257, limits assumed)
T4 construct: construct not described; also called TNFR2 protein
T4 sequence (looked up): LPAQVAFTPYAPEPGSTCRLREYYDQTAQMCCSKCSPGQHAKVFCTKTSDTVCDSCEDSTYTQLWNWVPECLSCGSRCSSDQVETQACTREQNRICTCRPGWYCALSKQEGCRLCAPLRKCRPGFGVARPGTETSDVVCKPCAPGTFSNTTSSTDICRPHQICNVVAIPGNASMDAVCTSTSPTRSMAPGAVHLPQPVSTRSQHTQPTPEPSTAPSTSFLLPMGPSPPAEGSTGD


Legend:
[1] = biological target: T1, Human TNFR2 recombinant protein (Sino …); assay: SPR Biacore, antibody on Protein A chip, TNFR2 analyte
Protocol: (§1) In this experiment, Protein A chip was used, and the time required for the chip to capture the diluted antibody was determined by manual run, so that the Rmax of the saturated binding antigen was 50 RU. Human TNFR2 (Sino 10417-H08H) and cynomolgus TNFR2 (Sino 90102-C08H) were diluted to 32, 16, 8, 4, 2 nM. The affinity of antibody and antigen was measured by multi-cycle kinetics. In each cycle, anti-TNFR2 antibodies were injected prior to the injection of gradient concentrations of TNFR2 protein allowing the occurrence of antibody-antigen association and dissociation. After each cycle, the Protein A chip was regenerated with Glycine pH1.5 (to remove the protein on the chip). BIAcore T200 analysis software was used to calculate the affinity KD of antibody binding to antigen.

[2] = biological target: T2, cynomolgus TNFR2 (Sino 90102-C08H); assay: as above
Protocol: as §1

[3] = biological target: T3, human TNFR2 on the cell surface …; assay: flow cytometry, blocking of TNFα-biotin on CHO-TNFR2 cells
Protocol: (§2) CHO cells that stably overexpressed human TNFR2 were used for experiments. The cells were resuscitated and passaged until in good state, and the expression level of human TNFR2 on the cells was assessed by FACS. Compared to the isotype control, the assay could be carried out when the fold change of mean fluorescence intensity (MFI) was more than 100 times.
(§3) CHO-TNFR2 cells were digested, washed twice with DPBS and stained with Live/Dead (L/D) at room temperature for 20 min, and then seeded at 1×10⁵ cells/50 μl/well. […] The diluted antibodies were added 50 μl/well into wells pre-seeded with cells, and gently blown and mixed to make the final concentrations of the antibodies to 20, 6.67, 2.22, 0.74, 0.247, 0.08, 0.027 and 0 nM, respectively followed by incubation at 4° C. for 30 min. […] After washing twice with the staining buffer, 100 μl/well of PE-streptavidin was added and incubated at 4° C. for 30 min. After additional washing with the staining buffer twice, 150 μl resuspended cells was analyzed using an flow cytometry. Taking the logarithmic value of the antibody concentrations as abscissa and the corresponding MFI value as ordinate, the inhibition curve of the antibody was drawn, and the IC50 value was calculated by four parameters fitting.

[4] = biological target: T3, human TNFR2 on the cell surface …; assay: as above; remark: listed apart in the source
[5] = biological target: T4, human TNFR2 (Novoprotein, Catalog No. …); assay: blocking ELISA, TNFα-biotin on coated human TNFR2, antibody 20 nM
Protocol: (§4) A microplate was pre-coated with 100 μl/well of 1 μg/ml human TNFR2 (Novoprotein, Catalog No. C830). […] After washing the plate, a Streptavidin-HRP working solution (1:10000 dilution) was added at 100 μl/well, and incubated with shaking at room temperature for 40 min. The plate was washed again, the HRP substrate TMB was added for color development, the termination solution was added to terminate the reaction, and the microplate reader was used to read the absorption value.

[6] = biological target: T4, human TNFR2 (Novoprotein, Catalog No. …); assay: blocking ELISA, TNFα-biotin on coated human TNFR2; 002# OD / antibody OD x 100
Protocol: as §4

[7] = biological target: T3, human TNFR2 on the cell surface …; assay: flow cytometry, blocking of TNFα-biotin on CHO-TNFR2 cells; AUC for 002# / AUC for antibody x 100
Protocol: as §2, §3

| Binder | Kd [1] | koff [1] | kon [1] | Kd [2] | koff [2] | kon [2] | IC50 [3] | Antibody AUC [4] | ELISA OD of antibodies to be tested (20 nM) [5] | % to 002# OD (2 nM) [6] | % to 002# OD (20 nM) [6] | AUC % [7] |
| --- | --- | --- | --- | --- | --- | --- | --- | --- | --- | --- | --- | --- |
| TNFR2 antibody #125 (antibody, V domains shown) VH: EVQLQESGGGLVQPGGSLNLSCAASGFAFSIYDLSWVRQTPEKRLEWVAYINNGGISTYYSDTVKGRFTISRDNAKNTLYLQMSSLKSEDTAMYYCVRGPFYGSANYFDYWGQGTTVTVSS VL: DIQMTQSPASLSLSVGETVTITCRASENIYSNLAWYQQKQGKSPQLLVYDATKLAEGVPSRFSGSESGTQYSLKINSLQSEDFGTYYCQHFWVTPWTFGGGTKLEIK | 0.0681 nM | 5.57e-05 s⁻¹ | 817000 M⁻¹ s⁻¹ | 0.151 nM | 0.000155 s⁻¹ | 1.02e+06 M⁻¹ s⁻¹ | 0.109 µg/mL | 37000 | 0.161 OD | 113% | 154% | 121% |
| TNFR2 antibody #001 (antibody, V domains shown, also called antibody #1) VH: EVQLQESGGGLVQPGGSLNLSCAASGFAFSTYDLSWVRQTPEKRLEWVAYINNGGISTYYSDTVKGRFTISRDNAKNTLYLQMSSLKSEDTAMYYCVRGPFYGSANYFDYWGQGTTVTVSS VL: EIVMTQSPASLSLSVGETVTITCRTSESIYSNLPWYQQKQGKSPQLLVYDATKLAEGVPSRFSGSESGTQYSLKINSLQSEDFGTYYCQHFWVTPWTFGGGTKLEIK | 0.161 nM | 8.95e-05 s⁻¹ | 556000 M⁻¹ s⁻¹ | 0.279 nM | 0.000185 s⁻¹ | 662000 M⁻¹ s⁻¹ | 0.14 µg/mL | 34300 | 0.198 OD | 84.2% | 126% | 88.3% |
| TNFR2 antibody #224 (antibody, V domains shown) VH: EVQLQESGPEIVKPGASVKLSCTASGFNNKDIYMHWVKQRPEQGLEWIGRIDPATGNTKHDPKFQDKATLSSDTSSNTAYLQFSSLTSEDTAVYYCAHSPYGDFGAMDYWGQGTTVTVSS VL: DIQMTQSPAIMSASLGERVTMTCTASSSVSSNYLHWYQQKPGSSPKLWIYSTSNLPSGVPARFSGSGSGTSYSLTISSMEAEDAATYYCHQYHRSPWTFGGGTKLEIK | 0.101 nM | 2.36e-05 s⁻¹ | 233000 M⁻¹ s⁻¹ | 0.273 nM | 0.000116 s⁻¹ | 425000 M⁻¹ s⁻¹ | 0.128 µg/mL | 40000 | 0.123 OD | 101% | 277% | 100% |
| TNFR2 antibody #219 (antibody, V domains shown) VH: EVQLQESGAELVRPGASVKLSCKASGYSFTNYWMNWVKQRPGQGLEWIGMIHPSDTETRLNQNFKDKATLTVDKSSSTSYMQLSSPTSEDSAVYYCARGEGLGAARSVSMDYWGQGTTVTVSS VL: DILMTQSPSSLSASLGDRVTISCRASQDISNYLNWYQQKPDGTVKVLIYYTAILHSGVPSRFSGSGSGTDYSLTISNLEQEDIATYFCQQGNTLPWTFGGGTKLEIK | 0.234 nM | 8.4e-05 s⁻¹ | 358000 M⁻¹ s⁻¹ | 0.863 nM | 0.000481 s⁻¹ | 558000 M⁻¹ s⁻¹ | 0.101 µg/mL | 14900 | 0.28 OD | 89.7% | 89% | 93.7% |
| TNFR2 antibody #226 (antibody, V domains shown) VH: EVQLQESGAELVRPGASVKLSCKASGYSFTNYWMNWVKQRPGQGLEWIGMIHPSDSETRLNQKFKDKATLTVDKSSSTAYMQLSSPTSEDSAVYYCARGEGLGAARSVSMDYWGQGTTVTVSS VL: DIQMTQSPSSLSASLGDRVTISCRASQDISNYLNWYQQKPDGTVKVLIYYTALLHSGVPSRFSGSGSGTDYSLTISNLEQEDIATYFCQQGNTLPWTFGGGTKLEIK | 0.194 nM | 7.14e-05 s⁻¹ | 369000 M⁻¹ s⁻¹ | 0.577 nM | 0.000318 s⁻¹ | 551000 M⁻¹ s⁻¹ | 0.06 µg/mL | 18600 | 0.237 OD | 95.7% | 105% | 98.7% |
| TNFR2 antibody #133 (antibody, V domains shown) VH: EVQLQESGAELVRSGASVKLSCTASGFNIKDYYIQWVKQRPEQGLEWIGWIDPESGNTKYAPKFQDKATMTADTSSNTAYLQLSGLTSEDSAVYYCNAYYDYDGSMDYWGQGTTVTVSS VL: DIVMTQSPLSLPVSLGDQASISCRSSQSLVHSNGNTYLHWYLQKPGQSPKLLIYKVSNRFSGVPDRFSGSGSGTDFTLKISRVETDDLGVYFCSQSTHVPTWTFGGGTKLEIK | 2.94 nM | 0.00388 s⁻¹ | 1.32e+06 M⁻¹ s⁻¹ | 3.61 nM | 0.0102 s⁻¹ | 2.82e+06 M⁻¹ s⁻¹ | 0.04 µg/mL | 17300 | 0.454 OD | 74.6% | 110% | 99.9% |
